This passage reports Geometric Mean results from US20170168078A1.

Assay [1] concerns the target human folate receptor delta (FRΔ) expressed on CHO cells (human) (UniProt A6ND01). The assay is described as follows: flow cytometry on cells expressing FRΔ, antibody 1 µg/mL (parental CHOK1: 5.9).
The target is the same in assay [2]. The assay is described as follows: flow cytometry on cells expressing FRΔ, antibody 1 µg/mL (parental CHOK1: 5.7).

human folate receptor delta (FRΔ) expressed on CHO cells (human), sequence (A6ND01 20-228, stated change not applied): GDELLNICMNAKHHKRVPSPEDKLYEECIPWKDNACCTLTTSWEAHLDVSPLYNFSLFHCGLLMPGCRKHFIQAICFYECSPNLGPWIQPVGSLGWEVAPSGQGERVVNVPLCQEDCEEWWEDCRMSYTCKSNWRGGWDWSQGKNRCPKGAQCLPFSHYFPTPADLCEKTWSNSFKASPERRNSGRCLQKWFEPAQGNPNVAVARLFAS

B1: Monoclonal antibody 24F12.B1 (antibody, mouse IgG1, V domains shown)
VH: SGGGLVRPGGSLKLSCAASGFTFSSYAMSWVRQSPEKRLEWVAEIGSGGSYTYYPDTVTGRFTISRDNAKSTLYLEMSSLRSEDTAIYYCARETTAGYFDYWGQGTTLTVSS
VL: TSSLSASLGDRVTISCSASQGINNFLNWYQQKPDGTVKLLIYYTSSLHSGVPSRFSGSGSGTDYSLTISNLEPEDIAIYYCQHFSKLPWTFGGGTKLEIKR
Take B1: the Geometric Mean in assay [1] was 5.9.

B2: Monoclonal antibody 9F3.H9.H3.H3.B5.G2 (antibody, mouse IgG2a, V domains shown)
VH: ESGPGLVRPSQSLSLTCSVTGYSITSGYYWNWIRQFPGSRLEWMGYIKSDGSNNYNPSLKNRISITRDTSKNQFFLKLNSVTTEDTATYFCTREWKAMDYWGQGTSVTVSS
VL: PAIMSASPGEKVTMTCRASSTVSYSYLHWYQQKSGASPQLWIYGTSNLASGVPARFSGSGSGTSYSLTISSVEAEDAATYYCQQYSGYPLTFGAGTKLELKR
B2: in assay [1], the Geometric Mean was 5.6.

B3: Monoclonal antibody 26B3.F2 (antibody, mouse IgG1, V domains shown)
VH: GPELVKPGASVKISCKASDYSFTGYFMNWVMQSHGKSLEWIGRIFPYNGDTFYNQKFKGRATLTVDKSSSTAHMELRSLASEDSAVYFCARGTHYFDYWGQGTTLTVSS
VL: PASLSASVGETVTITCRTSENIFSYLAWYQQKQGISPQLLVYNAKTLAEGVPSRFSGSGSGTQFSLKINSLQPEDFGSYYCQHHYAFPWTFGGGSKLEIKR
With B3, in assay [2], the Geometric Mean was found to be 5.4.
